Reference: patent publication US20090175866A1, “TREATMENT OF B-CELL MALIGNANCIES” (priority 2004, published 2009)

B1: PRO-029: HuCAL anti-FGFR3 clone; VH-CDR3 SEQ ID NO:7, VL-CDR3 SEQ ID NO:16 (antibody, V domains shown)
VH: QVQLVQSGAEVKKPGASVKVSCKASGYTFTSYYMHWVRQAPGQGLEWMGWINPNSGGTNYAQKFQGRVTMTRDTSISTAYMELSSLRSEDTAVYYCARTWQYSYFYYLDGGYYFDIWGQGTLVTVSS
VL: DIVLTQSPATLSLSPGERATLSCRASQSVSSSYLAWYQQKPGQAPRLLIYGASSRATGVPARFSGSGSGTDFTLTISSLEPEDFATYYCQQTNNAPVTFGQGTKVEIKRT
B2: PRO-002: HuCAL anti-FGFR3 clone; VH-CDR3 SEQ ID NO:2, VL-CDR3 SEQ ID NO:11 (antibody, V domains shown)
VH: QVQLVQSGAEVKKPGASVKVSCKASGYTFTSYYMHWVRQAPGQGLEWMGWINPNSGGTNYAQKFQGRVTMTRDTSISTAYMELSSLRSEDTAVYYCARDFLGYEFDYWGQGTLVTVSS
VL: DIELTQPPSVSVAPGQTARISCSGDALGDKYASWYQQKPGQAPVLVIYDDSDRPSGIPERFSGSNSGNTATLTISGTQAEDEADYYCQSYDYSADYVFGGGTKLTVLGQ
B3: PRO-026: HuCAL anti-FGFR3 clone; VH-CDR3 SEQ ID NO:6, VL-CDR3 SEQ ID NO:15 (antibody, V domains shown)
VH: QVQLVQSGAEVKKPGASVKVSCKASGYTFTSYYMHWVRQAPGQGLEWMGWINPNSGGTNYAQKFQGRVTMTRDTSISTAYMELSSLRSEDTAVYYCARGYWYAYFTYINYGYFDNWGQGTLVTVSS
VL: DIALTQPASVSGSPGQSITISCTGTSSDVGGYNYVSWYQQHPGKAPKLMIYDVSNRPSGVSNRFSGSKSGNTASLTISGLQAEDEADYYCQSYDNNSDVVFGGGTKLTVLGQ
B4: PRO-055: HuCAL anti-FGFR3 clone; VH-CDR3 SEQ ID NO:9, VL-CDR3 SEQ ID NO:18 (antibody, V domains shown)
VH: QVQLVQSGAEVKKPGASVKVSCKASGYTFTSYYMHWVRQAPGQGLEWMGWINPNSGGTNYAQKFQGRVTMTRDTSISTAYMELSSLRSEDTAVYYCARSMNSTMYWYLRRVLFDHWGQGTLVTVSS
VL: DIALTQPASVSGSPGQSITISCTGTSSDVGGYNYVSWYQQHPGKAPKLMIYDVSNRPSGVSNRFSGSKSGNTASLTISGLQAEDEADYYCQSYDMYNYIVFGGGTKLTVLGQ
B5: PRO-012: HuCAL anti-FGFR3 clone; VH-CDR3 SEQ ID NO:3, VL-CDR3 SEQ ID NO:12 (antibody, V domains shown)
VH: QVQLKESGPALVKPTQTLTLTCTFSGFSLSTSGVGVGWIRQPPGKALEWLALIDWDDDKYYSTSLKTRLTISKDTSKNQVVLTMTNMDPVDTATYYCARYHSWYEMGYYGSTVGYMFDYWGQGTLVTVSS
VL: DIELTQPPSVSVAPGQTARISCSGDALGDKYASWYQQKPGQAPVLVIYDDSDRPSGIPERFSGSNSGNTATLTISGTQAEDEADYYCQSYDFDFAVFGGGTKLTVLGQ
B6: PRO-054: HuCAL anti-FGFR3 clone; VH-CDR3 SEQ ID NO:8, VL-CDR3 SEQ ID NO:17 (antibody, V domains shown)
VH: QVQLVQSGAEVKKPGASVKVSCKASGYTFTSYYMHWVRQAPGQGLEWMGWINPNSGGTNYAQKFQGRVTMTRDTSISTAYMELSSLRSEDTAVYYCARNMAYTNYQYVNMPHFDYWGQGTLVTVSS
VL: DIELTQPPSVSVAPGQTARISCSGDALGDKYASWYQQKPGQAPVLVIYDDSDRPSGIPERFSGSNSGNTATLTISGTQAEDEADYYCQSYDYFKLVFGGGTKLTVLGQ

Key:
FGFR3 [1] = target: T1, FGFR3 (Homo sapiens, UniProt P22607); test: Affinity and Koff to FGFR3 measured by BIAcore; format: binding
T1 sequence (P22607 23-806): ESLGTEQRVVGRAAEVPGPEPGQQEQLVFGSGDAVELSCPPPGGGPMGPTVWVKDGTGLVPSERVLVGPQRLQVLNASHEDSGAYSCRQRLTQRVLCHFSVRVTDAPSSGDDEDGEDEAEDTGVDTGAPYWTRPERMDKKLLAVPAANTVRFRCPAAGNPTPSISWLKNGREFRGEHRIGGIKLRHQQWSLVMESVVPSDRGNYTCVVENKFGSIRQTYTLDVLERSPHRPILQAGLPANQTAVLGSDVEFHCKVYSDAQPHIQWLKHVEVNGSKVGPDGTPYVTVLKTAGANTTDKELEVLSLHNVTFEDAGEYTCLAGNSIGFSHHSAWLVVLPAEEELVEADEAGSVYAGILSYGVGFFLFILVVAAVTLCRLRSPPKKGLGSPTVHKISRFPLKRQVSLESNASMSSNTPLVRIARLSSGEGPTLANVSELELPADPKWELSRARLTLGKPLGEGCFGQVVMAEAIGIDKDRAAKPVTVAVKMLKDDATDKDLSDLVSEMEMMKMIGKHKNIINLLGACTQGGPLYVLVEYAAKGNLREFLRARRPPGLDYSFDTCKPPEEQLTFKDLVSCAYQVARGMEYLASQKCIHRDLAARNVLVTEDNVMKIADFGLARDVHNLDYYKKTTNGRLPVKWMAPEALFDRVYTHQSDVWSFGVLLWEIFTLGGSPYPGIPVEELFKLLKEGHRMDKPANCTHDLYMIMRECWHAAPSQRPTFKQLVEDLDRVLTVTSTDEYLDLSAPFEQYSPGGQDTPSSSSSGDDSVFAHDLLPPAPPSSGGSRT

FGFR3 [2] = target: T1, FGFR3; test: FGFR3 domain specificity of binding

| Molecule | Kd (FGFR3 [1]) | FGFR3 Domain Specificity (FGFR3 [2]) |
| --- | --- | --- |
| B1 | 6 nM | 3c |
| B2 | 37 nM | 2 |
| B3 | 4 nM | 3c |
| B4 | 2.9 nM | 3c |
| B5 | 14 nM | 2 |
| B6 | 3.7 nM | 3c |
